Measured values reported in patent US7666989B2 (priority 2003, dated 2010).
“And” between values parts separate entries of the source, which are not always exact repeats. Equal entries are not always repeated. Where two headings read alike, the source gives them in different places. Marks after values point to notes of the source that are not given here.

Key:
[1] = tested on: COLO 205 (human colon cancer cell); assay: MTT cytotoxicity, COLO 205; type: cell-based; details: 4 days
Excerpt: (§1) Reagents: RPMI1640 is from GIBCO; MTT is from Bebco. Fetal bovine serum is purchased from Hangzhou SiJiQing Bioengineering Material Co. Ltd. (P. R. China).
(§2) Cell lines: COLO 205 (human colon cancer cell), NCI-H460 (human lung cancer cell), RPMI 8226 (human multiple myeloma cell), U251 (human brain glioma cell) are from ATCC, USA. HL-60 (human promyelocytic leukemia cell), MDA-MB-231, MDA-MB-435 (human breast cancer cell), SCLC (human small-cell lung cancer cell), H125 (human lung cancer cell) and PC-3 (human […] cancer cell).
(§3) The well-grown tumor cells were collected to prepare a cell suspension (1×10^4/ml) with RPMI 1640 medium containing 10% fetal bovine serum. The cell suspension was inoculated into a 96-well plate, 100 μL (containing 1000 tumor cells) per well. The plate was cultured in a 5% CO2 incubator at 37° C. for 24 hours, followed by addition of medicament.
(§4) A blank control and a positive control using 5-fluorouracil or adriamycin are employed in the experiment. […]
(§5) The supernatant was discarded. […] After gently shaking, the OD values were measured by a BIORAD 550 enzyme analyzer, with the detection wavelength being 540 nm and the reference wavelength being 450 nm.
(§6) Dose-response curves were generated by plotting with the cell inhibition rates and different concentrations of medicament, and the half inhibitory concentrations (IC50) were calculated.

[2] = tested on: MDA-MB-435 (human breast cancer cell); assay: MTT cytotoxicity, MDA-MB-435; type: cell-based; details: 4 days
Excerpt: as §1, §2, §3, §4, §5, §6

[3] = tested on: human colon cancer COLO 205; details: COLO 205 xenograft; for Body Weight (g) End / RTV / Tumor volume (mm^3) End / Tumor weight / Body Weight (g) Start / Tumor volume (mm^3) Start / Inhibition rate (%): 15 injections; for Body Weight (g) Start / Tumor volume (mm^3) Start: baseline; for Inhibition rate (%): by tumor weight
Excerpt: In this example, the animals used were BALB/c-nu nude mice, 6-8 weeks old. For each experiment, all animals were of the same sex.
Tumor cell lines: human brain glioma U251, human lung cancer cell line NCI-H460, human colon cancer cell line COLO205 were inoculated from in vitro culture into nude mice subcutaneously, the tumors were subcultured and kept.
Experimental Procedures: well-grown nude mice carrying well-grown tumors were selected and sacrificed by disjointing neck vertebra. The tumors were removed aseptically and were cut into pieces having a diameter of 2-3 mm by a scalpel. The pieces were inoculated into the axilla of nude mice subcutaneously by a needle. […] The length and width of tumors were measured by a vernier caliper. The animals were then grouped based their tumor sizes. Each group included seven to eight animals.
The length, width of the tumor and the body weight of the mice were measured twice per week. The tumor volume (TV) and relative tumor volume (RTV) were calculated. A graph indicating the changes of tumor size was plotted. At the end of this experiment, the tumors were taken out and weighed after the mice were sacrificed, and the inhibition rates of the medicament on tumor growth were calculated.
The formula for calculating tumor volume (TV) is: length×width^2÷2.
The formula for calculating relative tumor volume (RTV) is: Vt/Vo (wherein Vo is the TV value measured when the administration is started, Vt is the TV value measured after that).
T-test was used to determine the statistical difference of tumor weights, tumor volumes and RTV etc. between different groups of animal. The index used for evaluating the anti-tumor activity is the relative tumor growth rate T/C (%), the formula for which is: […]
The evaluation standard for efficacy:
T/C (%)>60 is ineffective;
T/C (%)≦60 and P<0.05 after statistical analysis is effective.
Injectable hydroxycamptothecin (trade name: Xi Su, Wuhan Lishizhen Pharmaceuticals Inc., Huangshi Lishizhen Pharmaceuticals Group, P. R. China) was used as positive control, administered by intraperitoneal injection at the dose of 1 mg/kg, once per day. The administration was terminated after 15 consecutive days of administration. […] A single administration of 80 mg/kg hydroxycamptothecin was further given after two weeks. CPT was given to three treatment groups at the doses of 1.7 mg/kg, 5.0 mg/kg, 15.0 mg/kg respectively by intraperitoneal injection, once per day. The treatment contained a total of 15 injections.

[4] = Side or toxic effects in treated tumor-bearing nude mice; type: in vivo, BALB/c-nu nude mice; details: treated nude mice versus negative control; body weight and viability
Excerpt: No substantial difference in the parameters concerning the living status of mice, such as body weight and viability of the treated groups were observed compared with those of the negative control group, except that the sizes of tumor in the treated mice were smaller. […] Therefore, CPT may be used as an effective and safe medicament for treating cancers. CPT is both theoretically and industrially important and has a bright future in the market.

[5] = CPT 1.7 mg/kg i.p. once per day
[6] = CPT 5.0 mg/kg i.p. once per day

B1: CPT: human recombinant circularly permuted TRAIL (CPT), which consists of 166 amino acid residues; SEQ ID No:2 (protein)
chain: TLSSPNSKNEKALGRKINSWESSRSGHSFLSNLHLRNGELVIHEKGFYYIYSQTYFRFQEEIKENTKNDKQMVQYIYKYTSYPDPILLMKSARNSCWSKDAEYGLYSIYQGGIFELKENDRIFVSVTNEHLIDMDHEASFFGAFLVGGGGGGVAAHITGTRGRSNT
modifications: Synthetically generated peptide
- IC50 [1]: 6 ± 0 ng/mL
- IC50 [2]: 8 ± 2 ng/mL
- Body Weight (g) End [3, 5]: 20.6 ± 3.0 g
- RTV [3, 5]: 1.62 ± 0.62
- Tumor volume (mm^3) End [3, 5]: 582 ± 408** mm^3
- Tumor weight [3, 5]: 0.40 ± 0.33 g
- Body Weight (g) Start [3, 5]: 20.6 ± 1.1 g
- Tumor volume (mm^3) Start [3, 5]: 205 ± 47 mm^3
- Inhibition rate (%) [3, 5]: 79.6%
- Body Weight (g) End [3, 6]: 21.4 ± 1.2 g
- RTV [3, 6]: 0.91 ± 0.35
- Tumor volume (mm^3) End [3, 6]: 314 ± 175** mm^3
- Tumor weight [3, 6]: 0.18 ± 0.15 g
- Body Weight (g) Start [3, 6]: 20.2 ± 0.8 g
- Tumor volume (mm^3) Start [3, 6]: 180 ± 63 mm^3
- Inhibition rate (%) [3, 6]: 90.8% and 90.9%
- Body Weight (g) End ([3]; CPT 15 mg/kg i.p. once per day): 21.1 ± 2.4 g
- RTV ([3]; CPT 15 mg/kg i.p. once per day): 0.33 ± 0.27
- Tumor volume (mm^3) End ([3]; CPT 15 mg/kg i.p. once per day): 52 ± 53** mm^3
- Tumor weight ([3]; CPT 15 mg/kg i.p. once per day): 0.05 ± 0.05 g
- Body Weight (g) Start ([3]; CPT 15 mg/kg i.p. once per day): 20.0 ± 0.5 g
- Tumor volume (mm^3) Start ([3]; CPT 15 mg/kg i.p. once per day): 192 ± 81 mm^3
- Inhibition rate (%) ([3]; CPT 15 mg/kg i.p. once per day): 97.4% and 97.8%
- fraction of animals in which no tumor was found ([3]; high-dose CPT (15 mg/kg/day, 15 injections), four weeks after the administration was stopped): ⅓
- side or toxic effects on animals [4]: did not exhibit any apparent side or toxic effects
